Experimental findings from patent publication US20150098941A1 (Chugai, published 2015) are described below.

B1: Fc-modified humanized anti-GPC3 antibody V209 (S239D/A330L/I332E) (antibody, human IgG1)
heavy: QVQLVQSGAEVKKPGASVKVSCKASGYTFTDYEMHWVRQAPGQGLEWMGALDPKTGDTAYSQKFKGRVTLTADKSTSTAYMELSSLTSEDTAVYYCTRFYSYTYWGQGTLVTVSSASTKGPSVFPLAPSSKSTSGGTAALGCLVKDYFPEPVTVSWNSGALTSGVHTFPAVLQSSGLYSLSSVVTVPSSSLGTQTYICNVNHKPSNTKVDKKVEPKSCDKTHTCPPCPAPELLGGPDVFLFPPKPKDTLMISRTPEVTCVVVDVSHEDPEVKFNWYVDGVEVHNAKTKPREEQYNSTYRVVSVLTVLHQDWLNGKEYKCKVSNKALPLPEEKTISKAKGQPREPQVYTLPPSRDELTKNQVSLTCLVKGFYPSDIAVEWESNGQPENNYKTTPPVLDSDGSFFLYSKLTVDKSRWQQGNVFSCSVMHEALHNHYTQKSLSLSPGK
VL: DVVMTQSPLSLPVTPGEPASISCRSSQSLVHSNGNTYLHWYLQKPGQSPQLLIYKVSNRFSGVPDRFSGSGSGTDFTLKISRVEAEDVGVYYCSQNTHVPPTFGQGTKLEIK
notes: G1m(1) allotype
B2: Fc-modified humanized anti-GPC3 antibody V22 (I332E) (antibody)
heavy: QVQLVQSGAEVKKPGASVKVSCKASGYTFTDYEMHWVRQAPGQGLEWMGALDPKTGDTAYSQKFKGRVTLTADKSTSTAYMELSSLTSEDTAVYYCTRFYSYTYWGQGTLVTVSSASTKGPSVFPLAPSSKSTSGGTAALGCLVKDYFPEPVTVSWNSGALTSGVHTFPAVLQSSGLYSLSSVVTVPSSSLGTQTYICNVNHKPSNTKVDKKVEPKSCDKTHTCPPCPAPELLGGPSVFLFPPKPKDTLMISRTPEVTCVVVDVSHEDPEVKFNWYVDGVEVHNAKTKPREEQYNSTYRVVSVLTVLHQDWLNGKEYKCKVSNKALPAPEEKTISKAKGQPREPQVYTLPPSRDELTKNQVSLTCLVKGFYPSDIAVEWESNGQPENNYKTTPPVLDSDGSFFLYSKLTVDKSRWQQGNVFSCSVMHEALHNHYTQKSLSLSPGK
VL: DVVMTQSPLSLPVTPGEPASISCRSSQSLVHSNGNTYLHWYLQKPGQSPQLLIYKVSNRFSGVPDRFSGSGSGTDFTLKISRVEAEDVGVYYCSQNTHVPPTFGQGTKLEIK
notes: also called pC-aGPChl (22)
B3: Fc-modified humanized anti-GPC3 antibody V212 (S239D/S298A/I332E) (antibody, human IgG1)
heavy: QVQLVQSGAEVKKPGASVKVSCKASGYTFTDYEMHWVRQAPGQGLEWMGALDPKTGDTAYSQKFKGRVTLTADKSTSTAYMELSSLTSEDTAVYYCTRFYSYTYWGQGTLVTVSSASTKGPSVFPLAPSSKSTSGGTAALGCLVKDYFPEPVTVSWNSGALTSGVHTFPAVLQSSGLYSLSSVVTVPSSSLGTQTYICNVNHKPSNTKVDKKVEPKSCDKTHTCPPCPAPELLGGPDVFLFPPKPKDTLMISRTPEVTCVVVDVSHEDPEVKFNWYVDGVEVHNAKTKPREEQYNATYRVVSVLTVLHQDWLNGKEYKCKVSNKALPAPEEKTISKAKGQPREPQVYTLPPSRDELTKNQVSLTCLVKGFYPSDIAVEWESNGQPENNYKTTPPVLDSDGSFFLYSKLTVDKSRWQQGNVFSCSVMHEALHNHYTQKSLSLSPGK
VL: DVVMTQSPLSLPVTPGEPASISCRSSQSLVHSNGNTYLHWYLQKPGQSPQLLIYKVSNRFSGVPDRFSGSGSGTDFTLKISRVEAEDVGVYYCSQNTHVPPTFGQGTKLEIK
notes: also called pC-aGPChl (212)
B4: Fc-modified humanized anti-GPC3 antibody V209 nG1m(1) allotype (S239D/A330L/I332E/D356E/L358M) (antibody, human IgG1, name in EU numbering)
heavy: QVQLVQSGAEVKKPGASVKVSCKASGYTFTDYEMHWVRQAPGQGLEWMGALDPKTGDTAYSQKFKGRVTLTADKSTSTAYMELSSLTSEDTAVYYCTRFYSYTYWGQGTLVTVSSASTKGPSVFPLAPSSKSTSGGTAALGCLVKDYFPEPVTVSWNSGALTSGVHTFPAVLQSSGLYSLSSVVTVPSSSLGTQTYICNVNHKPSNTKVDKKVEPKSCDKTHTCPPCPAPELLGGPDVFLFPPKPKDTLMISRTPEVTCVVVDVSHEDPEVKFNWYVDGVEVHNAKTKPREEQYNSTYRVVSVLTVLHQDWLNGKEYKCKVSNKALPLPEEKTISKAKGQPREPQVYTLPPSREEMTKNQVSLTCLVKGFYPSDIAVEWESNGQPENNYKTTPPVLDSDGSFFLYSKLTVDKSRWQQGNVFSCSVMHEALHNHYTQKSLSLSPGK
VL: DVVMTQSPLSLPVTPGEPASISCRSSQSLVHSNGNTYLHWYLQKPGQSPQLLIYKVSNRFSGVPDRFSGSGSGTDFTLKISRVEAEDVGVYYCSQNTHVPPTFGQGTKLEIK
B5: Fc-modified humanized anti-GPC3 antibody V922 (S239D/K326T/I332E) (antibody, human IgG1)
heavy: QVQLVQSGAEVKKPGASVKVSCKASGYTFTDYEMHWVRQAPGQGLEWMGALDPKTGDTAYSQKFKGRVTLTADKSTSTAYMELSSLTSEDTAVYYCTRFYSYTYWGQGTLVTVSSASTKGPSVFPLAPSSKSTSGGTAALGCLVKDYFPEPVTVSWNSGALTSGVHTFPAVLQSSGLYSLSSVVTVPSSSLGTQTYICNVNHKPSNTKVDKKVEPKSCDKTHTCPPCPAPELLGGPDVFLFPPKPKDTLMISRTPEVTCVVVDVSHEDPEVKFNWYVDGVEVHNAKTKPREEQYNSTYRVVSVLTVLHQDWLNGKEYKCKVSNTALPAPEEKTISKAKGQPREPQVYTLPPSRDELTKNQVSLTCLVKGFYPSDIAVEWESNGQPENNYKTTPPVLDSDGSFFLYSKLTVDKSRWQQGNVFSCSVMHEALHNHYTQKSLSLSPGK
VL: DVVMTQSPLSLPVTPGEPASISCRSSQSLVHSNGNTYLHWYLQKPGQSPQLLIYKVSNRFSGVPDRFSGSGSGTDFTLKISRVEAEDVGVYYCSQNTHVPPTFGQGTKLEIK

The target in the assay is T1, fused protein GST-GPC3 (GST and human glypican-3 peptide of SEQ ID NO: 16) (human, UniProt P51654 524-563).
T1 construct: It was immobilized on a BIACORE chip; also called GPC3 peptide; not shown: GST (glutathione S-transferase)
T1 sequence (P51654 524-563 limits assumed): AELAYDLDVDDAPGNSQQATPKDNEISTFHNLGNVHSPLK
Put plainly: SPR (BIACORE 3000), CHO culture supernatant over immobilized GST-GPC3. Here is the method: This was introduced into 2×10⁶/0.6 ml PBS(−) of CHO cells (strain DXB11S) according to an electroporation method under a condition of 1.5 kV and 25 uF. The cells were incubated in a 8% CO₂ incubator at 37° C. The cells were screened in CHO-S-SFMII medium (Invitrogen) containing 400 μg/ml of geneticin. Selected cells were inoculated into a CHO-S-SFMII medium containing 400 μg/ml geneticin in a 96-well plate at 0.4 cells/100 μl/well, and the cells were cloned according to a limiting dilution method. The culture supernatant was analyzed with BIACORE 3000. The antigen was quantified using a chip with fused protein GST-GPC3 (antigen GST and human glypican-3 shown by SEQ ID NO:16) immobilized thereon, and high-expression cells were selected.
As for B1, the binding result is listed as “binds”.

As for B2, the binding result is “binds”.

On to B3, for which the binding result is listed as “binds”.

For the molecule B4, the binding result is “binds”.

Turning to B5, the binding result is given as “binds”.
